# Results from patent US20250011363A1, “OPTIMIZED SHORTENED PEPTIDE THAT BINDS TO ACETYLCHOLINE RECEPTOR, AND USE THEREOF” (SKINMED CO., LTD., priority 2021, published 2025).
# B1: 6mer-1-88 (peptide)
# peptide: KRWICK
# B2: 6mer-1-105 (peptide)
# peptide: KKSISK
# B3: 6mer-1-95 (peptide)
# peptide: KKWQTK
# B4: 6mer-1-72 (peptide)
# peptide: RKVQLK
# B5: 6mer-1-107 (peptide)
# peptide: KKQRSR
# B6: 6mer-1-97 (peptide)
# peptide: KKVYLR
# B7: 6mer-1-86 (peptide)
# peptide: KKWRQK
# B8: 6mer-1-82 (peptide)
# peptide: KKVLYR
# B9: 6mer-1-85 (peptide)
# peptide: RKRQCK
# B10: 6mer-1-102 (peptide)
# peptide: RRRYRR
# B11: 6mer-1-69 (peptide)
# peptide: RKVRRR
# B12: 6mer-1-101 (peptide)
# peptide: KRWLYR
# B13: 6mer-1-80 (peptide)
# peptide: KRVQQR
# B14: 6mer-1-93 (peptide)
# peptide: KRWIRR
# B15: 6mer-1-75 (peptide)
# peptide: RRQYQK
# B16: 6mer-1-74 (peptide)
# peptide: KKVRLR
# B17: 6mer-1-91 (peptide)
# peptide: RKQQCK
# B18: 6mer-1-92 (peptide)
# peptide: RRWRLK
# B19: 6mer-1-76 (peptide)
# peptide: RRLQLK
# B20: 6mer-1-108 (peptide)
# peptide: RRLLLR
# B21: 6mer-1-79 (peptide)
# peptide: KRLFCK
# B22: 6mer-1-106 (peptide)
# peptide: KRGQLK
# B23: 6mer-1-77 (peptide)
# peptide: KKQLRR
# B24: 6mer-1-104 (peptide)
# peptide: KRGFSK
# B25: 6mer-1-99 (peptide)
# peptide: RKVVYR
# B26: 6mer-1-94 (peptide)
# peptide: RKVQQK
# B27: 6mer-1-87 (peptide)
# peptide: KKQVYK
# B28: 6mer-1-78 (peptide)
# peptide: KKRVSK
# B29: 6mer-1-71 (peptide)
# peptide: KRWFYK
# B30: 6mer-1-96 (peptide)
# peptide: KRGVRK
# B31: 6mer-1-84 (peptide)
# peptide: RRGQTK
# B32: 6mer-1-100 (peptide)
# peptide: RKWISK
# B33: 6mer-1-81 (peptide)
# peptide: RRWQLR
# B34: 6mer-1-70 (peptide)
# peptide: KKLLYR
# B35: 6mer-1-103 (peptide)
# peptide: RKRICK
# B36: 6mer-1-90 (peptide)
# peptide: KKGISK
# B37: 6mer-1-83 (peptide)
# peptide: RRSFLR
# B38: 6mer-1-89 (peptide)
# peptide: RKQRCK
# B39: 6mer-1-73 (peptide)
# peptide: KKQQQR
# B40: 6mer-1-109 (peptide)
# peptide: KKRYLR
# B41: 6mer-1-110 (peptide)
# peptide: KRQLLK
# B42: 6mer-1-98 (peptide)
# peptide: KRLQCR
# B43: 5mer-581 (peptide)
# peptide: KGVLR
# B44: 5mer-595 (peptide)
# peptide: KWQQR
# B45: 5mer-582 (peptide)
# peptide: RGICK
# B46: 5mer-293 (peptide)
# peptide: RQYYR
# B47: 5mer-596 (peptide)
# peptide: KLQQR
# B48: 5mer-589 (peptide)
# peptide: KGLCR
# B49: 5mer-597 (peptide)
# peptide: KLVSR
# B50: 5mer-594 (peptide)
# peptide: KQYSR
# B51: 5mer-584 (peptide)
# peptide: KQIQK
# B52: 5mer-286 (peptide)
# peptide: RWFQK
# B53: 5mer-282 (peptide)
# peptide: RVLTR
# B54: 5mer-297 (peptide)
# peptide: RSLRK
# B55: 5mer-281 (peptide)
# peptide: RGFLK
# B56: 5mer-591 (peptide)
# peptide: RVYTK
# B57: 5mer-289 (peptide)
# peptide: RRQYR
# B58: 5mer-290 (peptide)
# peptide: RGYYR
# B59: 5mer-590 (peptide)
# peptide: KQYTK
# B60: 5mer-288 (peptide)
# peptide: KLILK
# B61: 5mer-284 (peptide)
# peptide: KQVQR
# B62: 5mer-296 (peptide)
# peptide: KWISK
# B63: 5mer-298 (peptide)
# peptide: KSIYR
# B64: 5mer-587 (peptide)
# peptide: RVITR
# B65: 5mer-592 (peptide)
# peptide: RWLCR
# B66: 5mer-292 (peptide)
# peptide: KLVCK
# B67: 5mer-283 (peptide)
# peptide: KWVYK
# B68: 5mer-287 (peptide)
# peptide: KRYRR
# B69: 5mer-294 (peptide)
# peptide: KQYYK
# B70: 5mer-585 (peptide)
# peptide: RSVSK
# B71: 5mer-291 (peptide)
# peptide: RWFTR
# B72: 5mer-593 (peptide)
# peptide: KQYLK
# B73: 5mer-598 (peptide)
# peptide: RVRSK
# B74: 5mer-583 (peptide)
# peptide: KVVYR
# B75: 5mer-588 (peptide)
# peptide: RSFTR
# B76: 5mer-586 (peptide)
# peptide: KGRRR
# B77: 5mer-295 (peptide)
# peptide: RGRCR
# B78: 5mer-285 (peptide)
# peptide: KGQLK
# Biological target: acetylcholine receptor
# Test: SPR, receptor on CM5 chip, peptide 10 µM
row,Binding affinity (RU),Binder
1,121 RU,B1
2,141 RU,B2
3,142 RU,B3
4,139 RU,B4
5,131 RU,B5
6,139 RU,B6
7,142 RU,B7
8,123 RU,B8
9,121 RU,B9
10,127 RU,B10
11,142 RU,B11
12,142 RU,B12
13,133 RU,B13
14,136 RU,B14
15,139 RU,B15
16,142 RU,B16
17,131 RU,B17
18,153 RU,B18
19,126 RU,B19
20,139 RU,B20
21,137 RU,B21

row,Binding affinity (RU),Binder
1,149 RU,B22
2,149 RU,B23
3,121 RU,B24
4,136 RU,B25
5,142 RU,B26
6,139 RU,B27
7,145 RU,B28
8,121 RU,B29
9,125 RU,B30
10,142 RU,B31
11,146 RU,B32
12,148 RU,B33
13,139 RU,B34
14,122 RU,B35
15,125 RU,B36
16,146 RU,B37
17,142 RU,B38
18,142 RU,B39
19,148 RU,B40
20,121 RU,B41
21,154 RU,B42

# Biological target: acetylcholine receptor
# Test: SPR, AchR immobilised on chip, peptide at 10 uM
row,Binding affinity (RU),Binder
1,65 RU,B43
2,58 RU,B44
3,82 RU,B45
4,83 RU,B46
5,56 RU,B47
6,58 RU,B48
7,68 RU,B49
8,50 RU,B50
9,76 RU,B51
10,71 RU,B52
11,77 RU,B53
12,81 RU,B54
13,58 RU,B55
14,61 RU,B56
15,87 RU,B57
16,57 RU,B58
17,81 RU,B59
18,73 RU,B60

row,Binding affinity (RU),Binder
1,52 RU,B61
2,55 RU,B62
3,75 RU,B63
4,66 RU,B64
5,56 RU,B65
6,59 RU,B66
7,51 RU,B67
8,68 RU,B68
9,50 RU,B69
10,74 RU,B70
11,72 RU,B71
12,77 RU,B72
13,84 RU,B73
14,75 RU,B74
15,60 RU,B75
16,78 RU,B76
17,52 RU,B77
18,75 RU,B78
